This is an account of results in paper PMC4764562, “The Sec7 N-terminal regulatory domains facilitate membrane-proximal activation of the Arf1 GTPase” (eLife, 2016).

By stoichiometry N is commonly meant the number of molecules, sites or subunits per partner or assembly.

For data set [1], the target named is full-length T. terrestris Sec7 (T. terrestris). The data set can be described thus: SEC-MALS; 5 mg/ml, Wyatt WTC-050S5 gel filtration column with DAWN HELEOS-II and Optilab T-rEX detectors, room temperature; measured mass compared with that predicted from the sequence.
Data set [2] addresses construct corresponding to a predicted coiled-coil from the HDS4 domain of Sec7. The data set is described as above.
Data set [3] concerns the molecule itself. The description is as above.
The next data set concerns the target T1, GST-Arf1 (Saccharomyces cerevisiae (strain ATCC …, UniProt P11076)).
T1 chain: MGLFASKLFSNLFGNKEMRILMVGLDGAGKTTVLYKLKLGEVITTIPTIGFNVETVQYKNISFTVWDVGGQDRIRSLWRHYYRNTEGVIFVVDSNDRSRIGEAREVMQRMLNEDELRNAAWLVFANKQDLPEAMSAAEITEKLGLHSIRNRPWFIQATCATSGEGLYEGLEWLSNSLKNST
The data set can be described thus: GST pulldown (also liposome pelleting); Arf1 loaded with GMPPNP or GDP; no stable nucleotide-dependent interaction seen (Arf1 is nevertheless a GEF substrate of Sec7ΔC).

Take “full-length T. terrestris Sec7 (natural protein)”: in data set [1], the stoichiometry N is 2.

On to “construct corresponding to a predicted coiled-coil from the HDS4 domain of Sec7 (domain or fragment)”, for which, in data set [2], the stoichiometry N is 2.

B1: S. cerevisiae Sec7f (residues 203-2009) (domain or fragment, UniProt P11075 203-2009, looked up)
chain: PRSTHTRNISLSSNGSNTNSTIILVKTTLETILNDKDIKKNSNAQKAIERTLQKFKEFDPQTTNNPHYVDSILVFEALRASCRTKSSKVQSLALDCLSKLFSFRSLDETLLVNPPDSLASNDQRQDAADGITPPPKQKIIDAAIDTISDCFQGEGTDDRVELQIVRALSSCILEEDSSSLCHGASLLKAIRTIYNVFVFSLNPSNQGIAQATLTQIISSVYDKIDLKQSTSSAVSLSTKNHQQQSAIELSEASENAETPAPLTLENMDKLNDDEERLMDAQQPDSIAITNQDLAVKDAFLVFRVMAKICAKPLETELDMRSHAVRSKLLSLHIIYSIIKDHIDVFLSHNIFLPGKERVCFIDSIRQYLRLVLSRNAASPLAPVFEVTLEIMWLLIANLRADFVKEIPVFLTEIYFPISELTTSTSQQKRYFLSVIQRICNDPRTLVEFYLNYDCNPGMPNVMEITVDYLTRLALTRVEITQTQRSYYDEQISKSLSTYNFSQLPLLTSSNLSSSPDVGQVNLLFPLDFALKMVSLNCIVSVLRSLSSWAHKALNPNTHTANKVLLNTTSSARQESRSSLSNDVRSSIMTSNDDFKPTYEDEESRSLSSQNIDADDPTQFENLKLRKTALSECIAIFNNKPKKAIPVLIKKGFLKDDSPISIAKWLLETEGLDMAAVGDYLGEGDDKNIAIMHAFVDEFDFTGMSIVDALRSFLQSFRLPGEGQKIDRFMLKFAERFVDQNPGVFSKADTAYVLSYSLIMLNTDLHSSQIKNKMSLQEFLENNEGIDNGRDLPRDFLEGLFNEIANNEIKLISEQHQAMLSGDTNLVQQQQSAFNFFNSRDLTREAYNQVSKEISSKTELVFKNLNKNKGGPDVYYAASHVEHVKSIFETLWMSFLAALTPPFKDYDDIDTTNKCLEGLKISIKIASTFRINDARTSFVGALVQFCNLQNLEEIKVKNVNAMVILLEVALSEGNYLEGSWKDILLVVSQMERLQLISKGIDRDTVPDVAQARVANPRVSYESSRSNNTSFFDVWGKKATPTELAQEKHHNQTLSPEISKFISSSELVVLMDNIFTKSSELSGNAIVDFIKALTAVSLEEIESSENASTPRMFSLQKMVDVCYYNMDRIKLEWTPLWAVMGKAFNKIATNSNLAVVFFAIDSLRQLSMRFLDIEELSGFEFQHDFLKPFEYTVQNSGNTEVQEMIIECFRNFILTKSESIKSGWKPILESLQYTARSSTESIVLKTQLLVSNDIVTNHFENVFSQEDAFSELVGVFREITKNKRFQKLSLHALESLRKMTQNVADICFYNENKTEEERKHNDALLRGKDIFQDVWFPMLFCFNDTIMTAEDLEVRSRALNYMFDALVAYGGKFNDDFWEKICKKLLFPIFGVLSKHWEVNQFNSHDDLSVWLSTTLIQALRNLIALFTHYFESLNRMLDGFLGLLVSCICQENDTIARIGRSCLQQLILQNVSKFNEYHWNQIGDVFDKLFDLTTANELFDYDPLQQGRKSSVSHHQTTNDTSQHSDDDSNDRRENDSNISETVERAHQEESSEDVGGDMVETLNGQTKLNNGNSVPTVKDELNPKPASLSIPKKTKHMKRNESNEDIRRRINIKNSIVVKCVLQLLMIELLNELFENEDFAHCIPYKEAIRITRLLEKSYEFSRDFNEDYGLRTRLVEARVVDKIPNLLKQETSAAAVLLDIMFQLYLNDDEKKADLITRLITICIQVVEGYVSLDDRTMERSINAWRSVIVEILQGYYEFDDEDFRLYCPAMYALVIQILDKSVPTELRHAIKQFLSRVGELYLSTD
notes: Sec7 (Arf-GEF) of S. cerevisiae, residues 203-2009; source: E. coli, purified (Ni-NTA, MonoQ, Superdex 200)
Turning to B1, the “stoichiometry N” value in data set [3] is 2.

B2: S. cerevisiae Gea2 full-length (natural protein, UniProt P39993 1-1459, looked up)
chain: MSDREFVTVDPVTIIIKECINLSTAMRKYSKFTSQSGVAALLGGGSEIFSNQDDYLAHTFNNLNTNKHNDPFLSGFIQLRLMLNKLKNLDNIDSLTILQPFLLIVSTSSISGYITSLALDSLQKFFTLNIINESSQNYIGAHRATVNALTHCRFEGSQQLSDDSVLLKVVFLLRSIVDSPYGDLLSNSIIYDVLQTILSLACNNRRSEVLRNAAQSTMIAVTVKIFSKLKTIEPVNVNQIYINDESYTNDVLKADTIGTNVESKEEGSQEDPIGMKVNNEEAISEDDGIEEEHIHSEKSTNGAEQLDIVQKTTRSNSRIQAYADDNYGLPVVRQYLNLLLSLIAPENELKHSYSTRIFGLELIQTALEISGDRLQLYPRLFTLISDPIFKSILFIIQNTTKLSLLQATLQLFTTLVVILGNNLQLQIELTLTRIFSILLDDGTANNSSSENKNKPSIIKELLIEQISILWTRSPSFFTSTFINFDCNLDRADVSINFLKALTKLALPESALTTTESVPPICLEGLVSLVDDMFDHMKDIDREEFGRQKNEMEILKKRDRKTEFIECTNAFNEKPKKGIPMLIEKGFIASDSDKDIAEFLFNNNNRMNKKTIGLLLCHPDKVSLLNEYIRLFDFSGLRVDEAIRILLTKFRLPGESQQIERIIEAFSSAYCENQDYDPSKISDNAEDDISTVQPDADSVFILSYSIIMLNTDLHNPQVKEHMSFEDYSGNLKGCCNHKDFPFWYLDRIYCSIRDKEIVMPEEHHGNEKWFEDAWNNLISSTTVITEIKKDTQSVMDKLTPLELLNFDRAIFKQVGPSIVSTLFNIYVVASDDHISTRMITSLDKCSYISAFFDFKDLFNDILNSIAKGTTLINSSHDDELSTLAFEYGPMPLVQIKFEDTNTEIPVSTDAVRFGRSFKGQLNTVVFFRIIRRNKDPKIFSKELWLNIVNIILTLYEDLILSPDIFPDLQKRLKLSNLPKPSPEISINKSKESKGLLSTFASYLKGDEEPTEEEIKSSKKAMECIKSSNIAASVFGNESNITADLIKTLLDSAKTEKNADNSRYFEAELLFIIELTIALFLFCKEEKELGKFILQKVFQLSHTKGLTKRTVRRMLTYKILLISLCADQTEYLSKLINDELLKKGDIFTQKFFATNQGKEFLKRLFSLTESEFYRGFLLGNENFWKFLRKVTAMKEQSESIFEYLNESIKTDSNILTNENFMWVLGLLDEISSMGAVGNHWEIEYKKLTESGHKIDKENPYKKSIELSLKSIQLTSHLLEDNNDLRKNEIFAIIQALAHQCINPCKQISEFAVVTLEQTLINKIEIPTNEMESVEELIEGGLLPLLNSSETQEDQKILISSILTIISNVYLHYLKLGKTSNETFLKILSIFNKFVEDSDIEKKLQQLILDKKSIEKGNGSSSHGSAHEQTPESNDVEIEATAPIDDNTDDDNKPKLSDVEKD
notes: Gea2, early-Golgi Arf-GEF of S. cerevisiae, full length
In the case of B2, the “stoichiometry N” value in data set [3] is 2.

B3: S. cerevisiae Sec7ΔC (residues 203-1017) (domain or fragment, UniProt P11075 203-1017, looked up)
chain: PRSTHTRNISLSSNGSNTNSTIILVKTTLETILNDKDIKKNSNAQKAIERTLQKFKEFDPQTTNNPHYVDSILVFEALRASCRTKSSKVQSLALDCLSKLFSFRSLDETLLVNPPDSLASNDQRQDAADGITPPPKQKIIDAAIDTISDCFQGEGTDDRVELQIVRALSSCILEEDSSSLCHGASLLKAIRTIYNVFVFSLNPSNQGIAQATLTQIISSVYDKIDLKQSTSSAVSLSTKNHQQQSAIELSEASENAETPAPLTLENMDKLNDDEERLMDAQQPDSIAITNQDLAVKDAFLVFRVMAKICAKPLETELDMRSHAVRSKLLSLHIIYSIIKDHIDVFLSHNIFLPGKERVCFIDSIRQYLRLVLSRNAASPLAPVFEVTLEIMWLLIANLRADFVKEIPVFLTEIYFPISELTTSTSQQKRYFLSVIQRICNDPRTLVEFYLNYDCNPGMPNVMEITVDYLTRLALTRVEITQTQRSYYDEQISKSLSTYNFSQLPLLTSSNLSSSPDVGQVNLLFPLDFALKMVSLNCIVSVLRSLSSWAHKALNPNTHTANKVLLNTTSSARQESRSSLSNDVRSSIMTSNDDFKPTYEDEESRSLSSQNIDADDPTQFENLKLRKTALSECIAIFNNKPKKAIPVLIKKGFLKDDSPISIAKWLLETEGLDMAAVGDYLGEGDDKNIAIMHAFVDEFDFTGMSIVDALRSFLQSFRLPGEGQKIDRFMLKFAERFVDQNPGVFSKADTAYVLSYSLIMLNTDLHSSQIKNKMSLQEFLENNEGIDNGRDLPRDFLEGLFNEIANNEIKLISEQH
notes: Sec7 of S. cerevisiae, residues 203-1017 (DCB/HUS and GEF domains); also called Sec7(203-1017); construct lacking the HDS1-4 domains with the GEF domain; source: E. coli, purified (Ni-NTA, MonoQ, Superdex 200)
In the case of B3, in the data set with GST-Arf1, the binding result is “no binding”. The “stoichiometry N” value in data set [3] was 2.

B4: S. cerevisiae Sec7 DCB/HUS domain construct (domain or fragment)
chain: PRSTHTRNISLSSNGSNTNSTIILVKTTLETILNDKDIKKNSNAQKAIERTLQKFKEFDPQTTNNPHYVDSILVFEALRASCRTKSSKVQSLALDCLSKLFSFRSLDETLLVNPPDSLASNDQRQDAADGITPPPKQKIIDAAIDTISDCFQGEGTDDRVELQIVRALSSCILEEDSSSLCHGASLLKAIRTIYNVFVFSLNPSNQGIAQATLTQIISSVYDKIDLKQSTSSAVSLSTKNHQQQSAIELSEASENAETPAPLTLENMDKLNDDEERLMDAQQPDSIAITNQDLAVKDAFLVFRVMAKICAKPLETELDMRSHAVRSKLLSLHIIYSIIKDHIDVFLSHNIFLPGKERVCFIDSIRQYLRLVLSRNAASPLAPVFEVTLEIMWLLIANLRADFVKEIPVFLTEIYFPISELTTSTSQQKRYFLSVIQRICNDPRTLVEFYLNYDCNPGMPNVMEITVDYLTRLALTRVEITQTQRSYYDEQISKSLSTYNFSQLPLLTSSNLSSSPDVGQVNLLFPLDFALKMVSLNCIVSVLRSLSSWAHKALNPNTHTANKVLLNTTSSARQESRSSLSNDVRSSIMTSNDDFKPTYEDEESRSLSSQNIDADDPTQFEN
For the molecule B4, the “stoichiometry N” value in data set [3] was 2.
